Source: the nanobody polyreactivity screen of Harvey et al. (2022)

Experiment: yeast display, Sf9 membrane polyspecificity reagent, FACS + sequencing; frameworks hold sequencing errors
In short: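 Using colony PCR, genes from sorted yeast display clones were amplified, then sequenced on MiSeq at 2 × 250 and filtered by CDR length. The clones had been stained with 10% biotinylated, detergent-solubilized Sf9 membrane reagent for 1 hour at 4 °C and sorted by FACS into low and high (top ~1%) gates on anti-HA and streptavidin fluorescence. Polyreactivity labels come from the gate of origin.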

Row | Sequence | polyreactivity (PSR sort gate)
1 | QVHLVESGGGLVQAGGSLRLSCAASGIIFPSYAMGWYRQAPGKERELVAAIDGSGGITYYADSVKGRFTISRDNAKNTVYLQLNSLKPEDTAVYYCNAEREYYDYGNDDYWGPGTQVTVSS | low polyreactivity
2 | QVQLVESGGGLVQAGGSLRLSCAASGRIFRVYAMGWYRQAPGKERELVAAITSGGTTYADSVKGRFTISRDYAKNTVYLQMNSLKPEDTAVYYCAARYYIHRGYDYDYWGQGTQVTVSS | high polyreactivity
3 | QVQLVESGGGLVQAGGSLRLSCAASGNTFRYYAMGWYRQAPGKERELVAAISRNGGSTYADSVKGRFTISRDNAKNTVYLQMNSLKPEDTAVYYCNAYRIRPGTPYGKGYYYWGQGTQVTVSS | high polyreactivity
4 | QVQLVESGGGLVQAGGSLRLSCAASGSIFGLNDMGWYRQAPGKERELVAGISSGGSTYYADSVKGRFTISRDNAKNTVYLQMNSLKPEDTAVYYCATEGRWPNASYGDYDYWGQGTQVTVSS | low polyreactivity
5 | QVQLVESGGGIVQAGGSLRLSCAASVFTFSDYTMGWYRQAPGKERELVAAINRGGNTYYADSVKGRFTISRDNAKNTVYLQMNSLKPEDTALYYCAAASYYAPYYWGQCTQVTVSS | high polyreactivity
6 | QVQLVESGGGLVQAGGSLRLSCAASGSIFGFYAMGWYRQAPGKERELVASISSSGDSTYYADSVKGRFTISRDNAKNTVYLQMNSLNPEDTAVYYCAAVVYDIYGYEFDYWGQGTQVTVSS | low polyreactivity
7 | QVQLVESGGGLVQAGGSLRLSCAASGLIFIGYAKGWSRQAPGKERELVASIRGVGSTNYADSVKGRFTISRDNAKNTVYLQMHSLKPEDTAVYYCATSVDRALYTQTRGDYDYWGQGTQVTVSS | low polyreactivity
8 | QVQLVESGGGLVQAGGSLRLSCAASGSTFGANAMGGYRQAPGKERELVATISSGGRTYYADSVKGRFTISRDNAKNTVYLQMNSLKPEDTAVYYCNAGADYTYVYISVYVLYDYWGQGTQVTVSS | low polyreactivity
9 | QVQLVESGGGLVQAGGSLRLSCAASGLTFTFYTMGWYRQAPGKERELVAAISIGGSTYYADSVKGRFTISRDNAKNTVYLQMNSLKQEDTAVYYCAAGYSRYYGHWGYYYWGQGTQVTVSS | high polyreactivity
10 | QVQLEESGGRLVQAGGSLRLTCAASGRTYARYAIGWNRQAPGKERQLVAAISRGGTTNYADSVKGRFTISRDNAKNTVYLQMNSLKPEDTAVYYCNRDFHLIHLSSARLDYWGQGTQVTVSS | low polyreactivity
11 | QVQLVESGGGLVQAGGSLRLSCAASGNIFYSYAMGWYRQAPGKERELVAAISSSGGGTYYADSVKGRFTISRDNAKNTVYLEMNSLKPEDTAVYYCATTARPTRYSSVRYYYWGQGTQVSVSS | high polyreactivity
12 | QVQLVESGGGLVQAGGSLRLSCAASGLTLRNYAMGWYRQAPGKERELVAAITTGGGRTYYADSVKGRFTISRDNAKNTVYFQMNSVKPEDTAVYYCAADAPREYVDHYKYDDDYWGQGTQVTVSS | low polyreactivity
13 | QVQLVESGGGLVQAGGSLRLSCAASGRIFGYYGMGWYRPAPGKERELVAAITYRGGSTYYADSVKGRFTISRDNAKNTVYLQMNSLKPEDTAVYYCAADGYSHYPYLYDYWGQGTQVTVSS | low polyreactivity
14 | QVQLVESVGGLVQAGGSLRLSCAASGSIFVNNAMGWYRQAPGKERELVAAISRSGGSTYYADSVKGRFTISRDNAKNTVYLQMNSLKPEDTAVYYCATVHRSSTPPEFNYWGQGTQVTVSS | high polyreactivity
15 | QVQLVESGGGLVQAGGSLRLSCAASGRTFTKYAMGWYIQAPGKERELVASISTRGGSTYYADSVKGRFTISRDNAKNTVYLQMNSLKPEDTAVYYCNKGFRHRAPSSTPYDYWGQGTQVTVSS | high polyreactivity
16 | QVQLVESGGGLVQAGGSLRLSCAASGFTFLWNAMGWYRQAPGKERELVAAISSSGGRTYYADSVKGRFTISRDNAKNTVYLLMNSLKPEDTAVYYCARVYSSPYNFGYWGQGTQVTVSS | low polyreactivity
17 | QVQLVESGGGLVQAGGSLRLSCAASGGTFYVYAMGWYRQAPGKERELVAAISTSDGITYYADSVKGRFTISRDNAKNTVYLQMNSLNPEDTAVYYCAAVFFSSFTYAYDYWGQGTLVTVSS | high polyreactivity
18 | QVQLVESGGGLVQAGGSLRLSCAASGLIFDTYAMGWYRQAPGKEREWVADITWSGGSTYYADSVKGRFTISRDNAKNTVYLQMNSLKPEETAVYYCAADSVSLFYWDQRYPDEYDYWGQGTQVTVSS | low polyreactivity
19 | QVQLVESGGGLVQAGGSLRLTCAASGFTFRYYAMGWSRQAPGKERELVATISTGSGVSTYYADSVKGRFTISRDNAKNTVYLQMNSLKPEDTAVYYCAAVFGWRRYVTYDYWGQGTQVTVSS | low polyreactivity
20 | QVQLVESGGGLVQAGGSLRLSCAASGSIFSRNAMGWSRPAPGKERELVAAISWSGGRKYYADSVKGRFTISRDNAKNTVYLQMNSLKPEDTAVYYCAAKVGYLAAYGRIRVYRYGYWGQGTQVTVSS | high polyreactivity
21 | QVQLVESGGGLVQAGGSLRLSCAASGRIFPYYAMGWYRQAPGKERELVAAISRIGGRTYYADSVKGRFTISRDNAKNTVYLQMNSLKPEDTAVYYCAAGYGGTFNCGQGTQVTVSS | high polyreactivity
22 | QVQLVDSGGGSVQAGGSLRLSCAASGSTFYENAMGWYRQAPGKERELVAAITWSGGRTYYADSVKGRFTISRDNAKNTVYLQMYSLKPEDTAVYYCNARERSRKFYYWGQGTQVTVSS | high polyreactivity

Row | Sequence | polyreactivity (PSR sort gate)
23 | QVQLVESGGGLVQAGGSLRLSCAASGNTLDAYAMGWYRQAPGKERELVAAITSGGSTYYADSVKGRFTISRDNAKNTVYLQMNSLKPEDTAVYYCNADGHPSDPGYDYWGQGTQVTVSS | low polyreactivity
24 | QVQLVESVGGLVQAGGNLRLSCAASGIIFSRYALGWYRQAPGKERELVAAITRSGGDTYYADSVKGRFTISRDHAKNTVYLQMNSLKPEDTAVYYCAADRTWYPWVATGYYWGHGTQVTVSS | low polyreactivity
25 | QVLLQESGGGLVQAGGSLRLSCAASGNIFSAGGMGWYRQAPVNERELVAGIGTGTSTNYADSVKGRFTISRDNAKNTVYLQMTSLKPEVTAVYYCAAAYYSGLSHWYWGQGTQVTVSS | low polyreactivity
26 | QVQLVESRGVLVQAGGSLRLSCAASGYIFAPYAMGWYRPAPGKERELVSAISWRGGSTYYADSVKGRFTISRDNAKITVYLQMNSLKPVDTAVYFCAAQGYGSGLSYYRFDFWGLGTQVTVSS | high polyreactivity
27 | QVQLVESGGGLVQAGGSLRLSCASSGRIFLYNAMGWYRQAPGKERELVAVISYGGGTYYADSVKGRFTISRDNAKNTVYLQMISLKPEDSAVYYCAAEKYSSSRYWPYNYWGQGTQVTVSS | high polyreactivity
28 | QFQLVESGGGLVQAGGSLRLSCAASGGTFGNNDMGWYRQAPGKERELVAAIRSAGTTYYADSVKGRFTISRDNAKNTVYLQMNSLKPEDTAVYYCNADTTGYWSYGFQYYGEDYWGQGTQVTVSS | low polyreactivity
29 | QVQLVESGGGLVQAGGSLRLSCAASGFTFKAYAMGWYRQAPGKERELVAAITYSGGSTYYADSVKGRFTISRDNAKNTVYLQMNSLKPEDTAVYYCNADSDLDLYWKMDYWGQGTQVTVSS | low polyreactivity
30 | QVQLVESGGGLVQAGGSLRLSCAASGSTFWWYAMGWYRQAPGKEREFVAAINWRGSSTYYADSVKGRFTISRDNAKNTVYLQMNSLKPEDTSVYYCNAVLRYGYAGMDYWGQGTQVTVSS | high polyreactivity
31 | QGQLVESGGGLVQAGGSLRLSCPASGRIYVFYAMGRYRQATGKEREFVATISYSGDTTYYADSVKGRFTISRDNAKNTVYLQMNSLKPEDTAVYYCAADLVPSYYYVPMGYDSWGQGTQVTVSS | low polyreactivity
32 | QVQLVESGGGLVQAGGSLRLSCAASGRIFYYNAMGWYRQAPGKERELVAAITRSGSTNYADSVKGRFTISRDNSKNSVYLQMNSLKPEDTAVYYCAAPWRGSVFRYYSWGQGTQVTVSS | low polyreactivity
33 | QVQLVESGGGLVQAGGSLRLSCADSGSIFQYYVRGCYRQAPGKERELVAAIRRSGTTYYADSVKGRFTISRDNAKNTVYLQMNSLKTEDTAVDYCNKVRCQEPSNYDYWVQGTQVTVSS | low polyreactivity
34 | QVQLVESGGGLVQAGGSLRLSCAASGLIFRGYAMGWYRQAPGKERELVAVISSSGGITRYADSVKGRFTISRDNAKNTVYLQMNSLKPEDTAVSYCATDRAERTGYTRYVKTYNYWGQGTQVTVSS | low polyreactivity
35 | QVQLVESGGGLVQAGGSLRLICAASGFIFHSYAMGWYRQAPGKERELVARITIGDSTKYADSVKGRFTISRDNAKNTVYLQMNSLKPEDTAVYYCAADGWRYIAYYQGFRRMNYWGQGTQVTVSS | high polyreactivity
36 | QVQLVESGGGLVQAGGSLRLSCAASGIIFGRYAMGWYRQAPGKERELVAVISRSGGSTYYADSVKGRFTISRDYAKNSVYLQMNSLKPEDTAVYYCAARYTPTYNAGLDYWGQGSQVTVSS | high polyreactivity
37 | QVPLVESGGGLVQAGGSLRLSCAASGHTFRFYTMGWYRQAPGKEREFVAAIRRRTGSTYYADSVKGRFTISRDNAKNTVYLQMNSLKPEDTAVYYCAAESRYYYRFYYGYHYDYWGQGTQVTVSS | high polyreactivity
38 | QVQLVESGGGLVQAGGSLRLSSAGSGSPFRSNAMGWYRQAPGKERELVAAISQRGGSTYYADSVKGRFTISRDNAKNPVYLQMNSLKAVDTAVYYCAKVSKRVGFPTAMNYWGQGTQVTVSS | high polyreactivity
39 | QVQLVESGGGLVQAGGSLRLSCAASGFTFRVNAMGWYRQAPGKERELVAAISSGGSTNYADSVKGRFTISRDNAKNTVYLQMNSLKPEDTAVYYCAKRFKYIYYWGQGTQVTVSS | high polyreactivity
40 | QVQLVESGGGLVQAGASLRLSCAASGSIFGGYGMGWYRQAPGKERELVAAITSRVGSTYYADSVKGRFTSSRDNAKNTVYLQLNSLNPEDTAVYYCAAKRIYSWGRWTGDYWGQGTQVTVSS | high polyreactivity
41 | QVQLVESGGGLVQAGGSLRLSCAASGSTFDANAMGWYRQAPGKERELVADITVRDGSTYYADSVKGRFTISRDNAKNTVYLQMNSLKPEDTAVYYCNAGRYTGGYSPGYGYWGLGTQVTVSS | low polyreactivity
42 | QVQLVESGGGLVQAGGSLRLSCAASGSILYFNAMGWYRQAPGKEREFVATIRRSGGSTNYADSVKGRFTISRDNAKNTVYLQMNSVKREDTAVYYCNARLSSGYTSWRYNYWGQGTQVSVSS | high polyreactivity
43 | QVQLVESGGGLVQAGGSLRLSCAASGLIFYRYTMGWYRQAPGKERELVAAITRSGSTYYADSVKGRFTISRDNAKNTVYLQMNSLKPEDTAVYYCAADVTLYYRGRRYYYWGQGTQVTVSS | high polyreactivity
